In publication PMC6946597:
Where two headings read alike, the source gives them in different places.

How the values were obtained:
[1] = molecular target: human COA6 isoform 3 (human); assay: SEC
[2] = molecular target: human COA6 isoform 3 (human); assay: SEC; remark: listed apart in the source

human COA6 isoform 3 (natural protein)
stoichiometry N [1]: 2 | stoichiometry N [2]: 2
